Measurements taken from the supplement of paper PMC12764529.
± gives the half width of the 95% confidence interval.

Experiments:
[1] = folding stability dG unfold (combined trypsin and chymotrypsin); higher = more stable
Procedure, shortened: (§1)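 Mini-proteins designed to be under 80 residues and free of cysteine were carried in a PA-tagged cDNA display construct and digested with trypsin and with chymotrypsin. Each protease was applied at 11 threefold-diluted concentrations, alongside a no-protease condition, before sequencing. K50 came from Bayesian fitting of the sequencing counts, and unfolding free energy was obtained by comparing it with a sequence-predicted unfolded-state K50 and a shared folded-state K50, for each protease separately or for both together. Designs were retained only if their AlphaFold2 dimer inter-PAE exceeded 15.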

[2] = folding stability dG unfold from chymotrypsin proteolysis; higher = more stable
Procedure, shortened: as §1

[3] = folding stability dG unfold from trypsin proteolysis; higher = more stable
Procedure, shortened: as §1

Sequence	folding stability dG unfold [1] [kcal/mol]	folding stability dG unfold [2] [kcal/mol]	folding stability dG unfold [3] [kcal/mol]
SASMGPEALVERIAEEIRKELGVDAGYKAPVEVRRPPDLVVVDAKLTVYKPDGNPLGEKTVRVVLPPLLSAG [r14_708_JUSTAS]	0.129 ± 0.29	0.0373 ± 0.22	-0.0399 ± 0.083
SAGGSAGGSPMVVFEFKIKDPKIRKAIDEAKKDGDKSAEIPFPNGWPIRITEIEDNYIRITIWSAGGSAGGS [r12_334_TrROS]	1.69 ± 0.2	2.18 ± 0.14	1.17 ± 0.058
SASSSTTTSSGTLEEVLQQVEDYLKANPNTLVTIAPPDGTTTTVDLSYSPSIAVNGDPSGLTTVTITNSSAG [r14_807_JUSTAS]	1.23 ± 0.09	0.932 ± 0.032	1.57 ± 0.057
SAGGSAGGSAGGSEEKLKKMKPKKVATYKVKTVTYKKTKDGTWEPTKVEEVEITVYALPSAGGSAGGSAGGS [r4_288_TrROS_Hall]	3.28 ± 0.3	4.04 ± 0.072	2.44 ± 0.07
SAGGSAGGSMKTTLLAEKELPDGTRVELTRVESPGSLTYEVVTVSPEGTEVRTLPPDELPYLLSAGGSAGGS [r12_315_JUSTAS]	0.912 ± 0.15	0.399 ± 0.23	1.22 ± 0.082
SAGGSAGGSPLAPGQTVTVRVERVDGPVVITVRNEATGETLTLTFDRPAEDLKPGDTVTVTVTSAGGSAGGS [r12_525_TrROS_Hall]	2.54 ± 0.045	2.897 ± 0.021	2.05 ± 0.039
SAGGMTITIDPTPDGVRIKIYDDGKPREIPVAPEVLELIQQNPTLEEIIRELFPPGHPIEKIEIEPWSAGGS [r16_567_TrROS]	1.15 ± 0.22	1.03 ± 0.17	1.57 ± 0.071
SAGGKDIKVTVEKVGDELYILVEASKEEVEALLKAGKKEITIEINGKKVKVKAVKLPDGTVLFRVRLESAGG [r13_171_TrROS_Hall]	3.96 ± 0.065	4.23 ± 0.052	3.28 ± 0.064
SAGKKKIKIEIVKVEKNENGETIIRVKVKLEDGSEKEITINLDDLKNGNLKNMTAEEIAKLFPNIEIESAGG [r19_74_TrROS_Hall]	1.88 ± 0.18	1.58 ± 0.084	2.35 ± 0.062
SAGGSAGGSAGGKPYIITLPNMKREVVFENSALVEFEDGSVIAAFENNVIVFFPVPEDALSAGGSAGGSAGG [r7_29_TrMRF]	0.578 ± 0.12	0.786 ± 0.093	0.121 ± 0.042
SAGGSAGGSVITLPNGVKLVTVKVSRPELDETETVTVPLEGMTLEEIKERLKKEGYKEVVFLESAGGSAGGS [r12_792_JUSTAS]	1.26 ± 0.077	1.28 ± 0.036	1.19 ± 0.032
SAGGSAGGSRIVRNPDGWYYVRIESPEKGQERYIWIPKGNAEEIADPFGIRNVSIYRPDEPIPSAGGSAGGS [r12_294_TrROS]	0.937 ± 0.19	1.28 ± 0.34	0.427 ± 0.15
SAGGSMVLLSEETIGDIKIKTYKDPNGGVITVIEKPGERTIEFIYPDGILTIEFPPDGTKKYSFDPIGSAGG [r13_246_JUSTAS]	2.29 ± 0.1	2.32 ± 0.071	2.01 ± 0.049
SAGGSAKTITIEVKVEKTKDGKIKKGEIVKVEIEVDEKTKKVKIKIYNKNGELIAEIEIELSPEDLSAGGSA [r15_134_TrROS_Hall]	2.81 ± 0.39	2.95 ± 0.16	1.34 ± 0.21
SAGGSAGGSAGRLLLEGLGADEVLRLEPEPDRVPIVVRHRDGGRDVVIEMDFEEAVRAILSAGGSAGGSAGG [r11_630_TrMRF]	-0.771 ± 0.42	-0.538 ± 0.28	-1.22 ± 0.67
SAEEPSLEELLAAIEEEAEARAREFLERHPDVPPGAVLKVPVTLTYPLRLGDVEYPVTFEAEVDVVVPASAG [r14_486_TrMRF]	1.95 ± 0.1	2.01 ± 0.086	1.74 ± 0.041

Sequence	folding stability dG unfold [1] [kcal/mol]	folding stability dG unfold [2] [kcal/mol]	folding stability dG unfold [3] [kcal/mol]
SAGGSAETTKDPNKPVETISTPGTLIKITKYPDSYNATIEPLDENGNVTGSESGPIKSIEEVLRQLSAGGSA [r15_288_JUSTAS]	0.216 ± 0.12	0.597 ± 0.067	-0.615 ± 0.16
SAGGSARIKIDPPGKIKVYYNGQPFTIKPGVELDIQRTDDMIVLRIRMRDPDGKPVGEFPFMFRIKSAGGSA [r15_424_TrROS]	2.41 ± 0.24	2.59 ± 0.23	2.13 ± 0.073
SAGGRIEIDPNSMQIKIYDAEDGEKVEIPINMPPGQIKEIELDPDGKISIRMPMWGQTQELPADDIKSAGGS [r16_410_TrROS]	0.793 ± 0.16	1.22 ± 0.023	-0.206 ± 0.061
SAGGSAGGKLKIEITLEKVKNPETKEYYYRLRVTIYNENGKKIKEIEVVAKSKEEALEALKKLLSAGGSAGG [r6_974_TrROS_Hall]	5.2 ± 0.13	5.24 ± 0.068	4.98 ± 0.22
SAGGSAGGDTVVIEVDMSEEEALALARALADAGKTVEIVVRDKDGRTRKITITVPPEELELPEESAGGSAGG [r6_62_TrROS_Hall]	1.95 ± 0.042	2.11 ± 0.029	1.74 ± 0.019
SKKMTAEELLKKFPNVVFIRLKNGKIIAFNKETKEIYIFNLKTGKVEKIKVTPEELEKLAKENNFEIYPVSA [r9_721_TrROS_Hall]	3.12 ± 0.12	3.32 ± 0.064	2.48 ± 0.078
SAGGSAEVTFTLPDGTPFSGEVTRFPDSIRVTLTVGSTPASFEMDPSTNLITGNIPGRPLTVSLGLSAGGSA [r2_194_JUSTAS]	1.18 ± 0.053	1.11 ± 0.1	1.17 ± 0.03
SAGGSAGGSAMQRVEIYFPGLKKVFTKPFKSLEEVEEAVKELLGPEYNPEKVEIKILPENAESAGGSAGGSA [r18_350_TrMRF]	1.27 ± 0.17	1.5 ± 0.14	0.912 ± 0.054
SAGGSASSVPVELEYETPGDPSSSSYTLEPVDLPPELASRIVEVTAKVEKEGGKLKITATVTLTDLSAGGSA [r15_321_JUSTAS]	0.48 ± 0.2	0.137 ± 0.25	0.723 ± 0.12
SAGGSAGGSEKPEVEKITLEITLTDEDGNKHTIKVELVRNAKTKKYYLRITLEDGSEFVFEIDSAGGSAGGS [r12_286_TrROS_Hall]	4.71 ± 0.13	4.83 ± 0.14	3.88 ± 0.14
SAGGSDDPAKDIDLDIPVVVLEEEEARELARELDKPIIFRLPDGRLRVFYPDGREEEFPLPKPEELSAGGSA [r2_34_TrMRF]	2.96 ± 0.039	2.65 ± 0.022	3.38 ± 0.066
SAGGELENLTVEELKALLEELFPDVEVKVTVEKLPEGYYRITVEIRVRLPNGETRRFELELVIRLEDSAGGS [r16_564_TrROS_Hall]	5.22 ± 0.28	5.36 ± 0.25	4.03 ± 0.23
SADALKKILSNIHSVEFDPKWGWVTIHFPNKSKIKKALKEGFPRVEMQEDPDGHMMIRIRVPKLPPGQPSAG [r14_115_TrROS]	2.35 ± 0.2	2.65 ± 0.043	1.82 ± 0.057
SAGGSAGGSKKKIKITVEKVDEEKGYYYVTIEIYDEETGELVEKKTIVAPSKEEALKALKELLSAGGSAGGS [r12_26_TrROS_Hall]	4.08 ± 0.35	3.5 ± 0.2	4.41 ± 0.32
SAGMEEEVEERTLPDGSPVTVTTFTDPATGKRTVFVRYPETGEWEVRDEEGNLIKKYGPVSFEEAKKELSAG [r5_757_JUSTAS]	1.97 ± 0.09	2.04 ± 0.064	1.67 ± 0.024
